Source: patent US20250382344A1, “Soluble GLP1/GIP/NPY2 Receptor Triple Agonists” (Boehringer Ingelheim International GmH, priority 2024, published 2025)
Numbering of substitutions follows the chain as printed. Values belong to the binder of their own block, whether it stands above or below them. *1 amine or outer side, *2 acyl side, *3 side chain or, on linkers, in order; H or OH if unused. Where no end group is shown, it is not given here. Side-chain parts run from the residue outwards. [ ]: non-standard residue; d: D form. The star is where a group is joined. C20 diacid = O=C(O)CCCCCCCCCCCCCCCCCCC(=O)*; C18 diacid = O=C(O)CCCCCCCCCCCCCCCCC(=O)*; γGlu = O=C(O)[C@H](CCC(=O)[*:2])N[*:1]; εLys = N[C@@H](CCCCN[*:1])C(=O)[*:2]; TRX = not defined here; Aib = CC(C)(N)C(=O)O

Columns and labels:
human GIP receptor = target: T1, human GIP receptor (human, UniProt P48546 22-466); assay: cell-based or functional assay
T1 sequence (looked up): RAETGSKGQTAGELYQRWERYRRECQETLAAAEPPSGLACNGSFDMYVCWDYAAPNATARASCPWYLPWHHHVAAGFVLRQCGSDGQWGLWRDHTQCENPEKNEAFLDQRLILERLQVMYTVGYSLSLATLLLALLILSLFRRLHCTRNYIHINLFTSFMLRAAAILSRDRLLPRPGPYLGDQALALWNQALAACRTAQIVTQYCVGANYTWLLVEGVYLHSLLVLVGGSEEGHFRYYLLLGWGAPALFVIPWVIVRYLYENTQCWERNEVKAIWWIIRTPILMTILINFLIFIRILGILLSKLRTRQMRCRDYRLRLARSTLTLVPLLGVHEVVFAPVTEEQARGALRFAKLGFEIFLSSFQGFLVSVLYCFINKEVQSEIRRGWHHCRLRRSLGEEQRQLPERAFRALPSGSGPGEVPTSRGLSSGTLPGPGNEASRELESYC

[1] = target: T2, human neuropeptide Y2 receptor (human, UniProt P49146 1-381); assay: cell-based or functional assay
T2 sequence (looked up): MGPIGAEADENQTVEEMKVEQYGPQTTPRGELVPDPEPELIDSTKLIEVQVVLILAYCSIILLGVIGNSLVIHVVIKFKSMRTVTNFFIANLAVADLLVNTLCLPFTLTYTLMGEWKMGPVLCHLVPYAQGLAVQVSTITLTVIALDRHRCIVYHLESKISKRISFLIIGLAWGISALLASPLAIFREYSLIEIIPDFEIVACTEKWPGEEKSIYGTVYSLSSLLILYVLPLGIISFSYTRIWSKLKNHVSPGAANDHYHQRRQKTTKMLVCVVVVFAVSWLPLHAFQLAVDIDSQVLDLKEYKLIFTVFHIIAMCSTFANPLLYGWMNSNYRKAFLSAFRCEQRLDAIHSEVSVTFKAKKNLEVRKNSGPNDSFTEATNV

B1: Compound 6 (peptide)
peptide: YXEGTFTSDYSIXLENQAQXAFVRHLINKXTRQRY
modifications: Aib at 2, 13, 20, 30; Lys29 epsilon-amino acylated with C18DA-gGlu-gGlu-gGlu-gGlu-gGlu-gGlu-eLys; C-terminal amide
- EC50, CreLuc reporter, 0.5% hP (human GIP receptor): 0.7 nM
- EC50, CreLuc reporter, 100% hP (human GIP receptor): 7.3 nM
- EC50, CreLuc reporter, 0.5% hP [1]: 14.7 nM
- EC50, CreLuc reporter, 100% hP [1]: 51 nM

B2: Compound 5 (peptide)
peptide: B1 peptide with N16X
modifications: Aib at 2, 13, 16, 20, 30; Lys29 epsilon-amino acylated with C18DA-gGlu-gGlu-gGlu-gGlu-gGlu-gGlu-eLys; C-terminal amide
- EC50, CreLuc reporter, 100% hP (human GIP receptor): 25 nM
- EC50, CreLuc reporter, 0.5% hP [1]: 28.6 nM
- EC50, CreLuc reporter, 100% hP [1]: 89.4 nM

B4: Compound 20 (peptide)
peptide: B1 peptide with Y10L, N16K
modifications: Aib at 2, 13, 20, 30; Lys29 epsilon-amino acylated with C20DA-gGlu-gGlu-gGlu-gGlu-gGlu-gGlu-eLys; C-terminal amide
- EC50, CreLuc reporter, 0.5% hP (human GIP receptor): 0.4 nM

B6: Compound 24 (peptide)
peptide: B1 peptide with N16K, Q17I
modifications: Aib at 2, 13, 20, 30; Lys29 epsilon-amino acylated with C18DA-gGlu-gGlu-gGlu-gGlu-gGlu-gGlu-eLys; C-terminal amide
- EC50, CreLuc reporter, 0.5% hP (human GIP receptor): 1 nM
- EC50, CreLuc reporter, 100% hP (human GIP receptor): 26.2 nM

Binder: Y[Aib]EGTFTSDYSI[Aib]LEKQAQ[Aib]AFVRHLINK([εLys-γGlu-γGlu-γGlu-γGlu-γGlu-γGlu-γGlu-C18 diacid])ITRQRY-NH2 [Compound 18]
- EC50, CreLuc reporter, 0.5% hP (human GIP receptor): 0.2 nM

More lines, now with the values ahead:

- EC50, CreLuc reporter, 0.5% hP (human GIP receptor): 1.7 nM
B3: Compound 80 (peptide)
peptide: B1 peptide with N16K, I27L
modifications: Aib at 2, 13, 20, 30; Lys29 epsilon-amino acylated with C20DA-gGlu-gGlu-gGlu-gGlu-gGlu-gGlu-eLys; C-terminal amide

- EC50, CreLuc reporter, 0.5% hP (human GIP receptor): 0.1 nM
- EC50, CreLuc reporter, 100% hP (human GIP receptor): 1.7 nM
B5: Compound 53 (peptide)
peptide: B1 peptide with N16K, V23I
modifications: Aib at 2, 20, 30; aMeL at 13; Lys29 epsilon-amino acylated with C20DA-gGlu-gGlu-gGlu-gGlu-gGlu-gGlu-eLys; C-terminal amide

- EC50, CreLuc reporter, 0.5% hP (human GIP receptor): 0.7 nM
- EC50, CreLuc reporter, 0.5% hP [1]: 22.9 nM
Binder: Y[Aib]EGTFTSDYSI[Aib]LEKQAQ[Aib]AFVRHLINK([εLys-γGlu-γGlu-γGlu-γGlu-γGlu-γGlu-γGlu-C20 diacid])[Aib]TRQRY-NH2 [Compound 35]

- EC50, CreLuc reporter, 100% hP (human GIP receptor): 14.9 nM
- EC50, CreLuc reporter, 0.5% hP [1]: 76.4 nM
- EC50, CreLuc reporter, 100% hP [1]: 131 nM
Binder: Y[Aib]EGTFTSDYSI[Aib]LEKQAQ[Aib]AFVRHLINK([γGlu-γGlu-γGlu-γGlu-γGlu-γGlu-TRX-C18 diacid])[Aib]TRQRY-NH2 (reading uncertain) [Compound 31]

- EC50, CreLuc reporter, 0.5% hP (human GIP receptor): 0.3 nM
Binder: Y[Aib]EGTFTSDYSILLEKQAQ[Aib]AFVRHLINK([γGlu-γGlu-γGlu-γGlu-γGlu-γGlu-C20 diacid])[Aib]TRQRY-NH2 [Compound 57]

- EC50, CreLuc reporter, 0.5% hP (human GIP receptor): 0.5 nM
- EC50, CreLuc reporter, 100% hP (human GIP receptor): 6.5 nM
- EC50, CreLuc reporter, 0.5% hP [1]: 17.1 nM
- EC50, CreLuc reporter, 100% hP [1]: 44.6 nM
Binder: Y[Aib]EGTFTSDYSI[Aib]LEKQAQ[Aib]EFVRHLINK([εLys-γGlu-γGlu-γGlu-γGlu-γGlu-γGlu-γGlu-C18 diacid])LTRQRY-NH2 [Compound 32]
